This passage reports Km and kcat results from PMC3293846, “Optimization of Time-Course Experiments for Kinetic Model Discrimination” (PLoS ONE, 2012).

Substrate in this data set: CC(=O)C=O
Nature of the data set: purified protein. Conditions: two-substrate sequential model (model 2), co-substrate glutathione, 70 mM potassium phosphate pH 6.5, 30°C, no glyoxalase II. The data set is classed as biochemical, Saccharomyces cerevisiae.

B1: yeast glyoxalase I (EC 4.4.1.5); glyoxalase I from Saccharomyces cerevisiae (Sigma) (Saccharomyces cerevisiae S288C) (protein)
chain: MSTDSTRYPIQIEKASNDPTLLLNHTCLRVKDPARTVKFYTEHFGMKLLSRKDFEEAKFSLYFLSFPKDDIPKNKNGEPDVFSAHGVLELTHNWGTEKNPDYKINNGNEEPHRGFGHICFSVSDINKTCEELESQGVKFKKRLSEGRQKDIAFALGPDGYWIELITYSREGQEYPKGSVGNKFNHTMIRIKNPTRSLEFYQNVLGMKLLRTSEHESAKFTLYFLGYGVPKTDSVFSCESVLELTHNWGTENDPNFHYHNGNSEPQGYGHICISCDDAGALCKEIEVKYGDKIQWSPKFNQGRMKNIAFLKDPDGYSIEVVPHGLIA
notes: no tags or mass told
In the case of B1, the Km was 1200 ± 190 µM and the kcat result is “(1.7±0.38)×10^5 min^−1”.

Usually Km stands for the concentration of substrate that gives half-maximal velocity.
